This data set relates to NotI restriction endonuclease (Nocardia otitidis-caviarum). Kind of data set: cleavage_in_vitro. Conditions: endonuclease contamination test; 200 units, 4 h, 37 C, NEBuffer 3 + BSA.

Bounds are passed on as bounds.

For phiX174 RFI DNA, the activity (% converted to RF II) is less than 5.

For the origin of these results see patent US5371006.
